From patent US20150344540A1, “NOVEL GLP-1 RECEPTOR AGONISTS WITH CHOLESTEROL EFFLUX ACTIVITY” (NOVO NORDISK A/S, priority 2012, published 2015)
Where no end group is shown, it is not given here. [ ]: non-standard residue; d: D form. Aib = CC(C)(N)C(=O)O

B1: [Aib8,Glu23,Aib24,Val25,Aib30,Glu34,Lys35,Aib36,Lys37]-GLP-1-(7-37)-peptidyl-Glu-Phe-Leu amide (peptide)
peptide: H[Aib]EGTFTSDVSSYLEGE[Aib]VKEFI[Aib]WLVEK[Aib]KEFL-NH2
modifications: N-terminus assumed
SMILES: CC[C@H](C)[C@H](NC(=O)[C@H](Cc1ccccc1)NC(=O)[C@H](CCC(=O)O)NC(=O)[C@H](CCCCN)NC(=O)[C@@H](NC(=O)C(C)(C)NC(=O)[C@H](CCC(=O)O)NC(=O)CNC(=O)[C@H](CCC(=O)O)NC(=O)[C@H](CC(C)C)NC(=O)[C@H](Cc1ccc(O)cc1)NC(=O)[C@H](CO)NC(=O)[C@H](CO)NC(=O)[C@@H](NC(=O)[C@H](CC(=O)O)NC(=O)[C@H](CO)NC(=O)[C@@H](NC(=O)[C@H](Cc1ccccc1)NC(=O)[C@@H](NC(=O)CNC(=O)[C@H](CCC(=O)O)NC(=O)C(C)(C)NC(=O)[C@@H](N)Cc1c[nH]cn1)[C@@H](C)O)[C@@H](C)O)C(C)C)C(C)C)C(=O)NC(C)(C)C(=O)N[C@@H](Cc1c[nH]c2ccccc12)C(=O)N[C@@H](CC(C)C)C(=O)N[C@H](C(=O)N[C@@H](CCC(=O)O)C(=O)N[C@@H](CCCCN)C(=O)NC(C)(C)C(=O)N[C@@H](CCCCN)C(=O)N[C@@H](CCC(=O)O)C(=O)N[C@@H](Cc1ccccc1)C(=O)N[C@@H](CC(C)C)C(N)=O)C(C)C
B2: [Aib8,Glu23,Val25,Glu34,Lys35,Aib36,Lys37]-GLP-1-(7-37)-peptidyl-Glu-Phe amide (peptide)
peptide: H[Aib]EGTFTSDVSSYLEGEAVKEFIAWLVEK[Aib]KEF-NH2
modifications: N-terminus assumed
SMILES: CC[C@H](C)[C@H](NC(=O)[C@H](Cc1ccccc1)NC(=O)[C@H](CCC(=O)O)NC(=O)[C@H](CCCCN)NC(=O)[C@@H](NC(=O)[C@H](C)NC(=O)[C@H](CCC(=O)O)NC(=O)CNC(=O)[C@H](CCC(=O)O)NC(=O)[C@H](CC(C)C)NC(=O)[C@H](Cc1ccc(O)cc1)NC(=O)[C@H](CO)NC(=O)[C@H](CO)NC(=O)[C@@H](NC(=O)[C@H](CC(=O)O)NC(=O)[C@H](CO)NC(=O)[C@@H](NC(=O)[C@H](Cc1ccccc1)NC(=O)[C@@H](NC(=O)CNC(=O)[C@H](CCC(=O)O)NC(=O)C(C)(C)NC(=O)[C@@H](N)Cc1c[nH]cn1)[C@@H](C)O)[C@@H](C)O)C(C)C)C(C)C)C(=O)N[C@@H](C)C(=O)N[C@@H](Cc1c[nH]c2ccccc12)C(=O)N[C@@H](CC(C)C)C(=O)N[C@H](C(=O)N[C@@H](CCC(=O)O)C(=O)N[C@@H](CCCCN)C(=O)NC(C)(C)C(=O)N[C@@H](CCCCN)C(=O)N[C@@H](CCC(=O)O)C(=O)N[C@@H](Cc1ccccc1)C(N)=O)C(C)C
B3: [Aib8,Glu23,Val25,Glu34,Lys35,Aib36,Lys37]-GLP-1-(7-37)-peptidyl-Glu amide (peptide)
peptide: H[Aib]EGTFTSDVSSYLEGEAVKEFIAWLVEK[Aib]KE-NH2
modifications: N-terminus assumed
SMILES: CC[C@H](C)[C@H](NC(=O)[C@H](Cc1ccccc1)NC(=O)[C@H](CCC(=O)O)NC(=O)[C@H](CCCCN)NC(=O)[C@@H](NC(=O)[C@H](C)NC(=O)[C@H](CCC(=O)O)NC(=O)CNC(=O)[C@H](CCC(=O)O)NC(=O)[C@H](CC(C)C)NC(=O)[C@H](Cc1ccc(O)cc1)NC(=O)[C@H](CO)NC(=O)[C@H](CO)NC(=O)[C@@H](NC(=O)[C@H](CC(=O)O)NC(=O)[C@H](CO)NC(=O)[C@@H](NC(=O)[C@H](Cc1ccccc1)NC(=O)[C@@H](NC(=O)CNC(=O)[C@H](CCC(=O)O)NC(=O)C(C)(C)NC(=O)[C@@H](N)Cc1c[nH]cn1)[C@@H](C)O)[C@@H](C)O)C(C)C)C(C)C)C(=O)N[C@@H](C)C(=O)N[C@@H](Cc1c[nH]c2ccccc12)C(=O)N[C@@H](CC(C)C)C(=O)N[C@H](C(=O)N[C@@H](CCC(=O)O)C(=O)N[C@@H](CCCCN)C(=O)NC(C)(C)C(=O)N[C@@H](CCCCN)C(=O)N[C@@H](CCC(=O)O)C(N)=O)C(C)C
B4: [Aib8,Glu23,Lys24,Val25,Glu34,Lys35,Aib36,Lys37]-GLP-1-(7-37)-peptidyl-Glu-Phe-Leu amide (peptide)
peptide: H[Aib]EGTFTSDVSSYLEGEKVKEFIAWLVEK[Aib]KEFL-NH2
modifications: N-terminus assumed
SMILES: CC[C@H](C)[C@H](NC(=O)[C@H](Cc1ccccc1)NC(=O)[C@H](CCC(=O)O)NC(=O)[C@H](CCCCN)NC(=O)[C@@H](NC(=O)[C@H](CCCCN)NC(=O)[C@H](CCC(=O)O)NC(=O)CNC(=O)[C@H](CCC(=O)O)NC(=O)[C@H](CC(C)C)NC(=O)[C@H](Cc1ccc(O)cc1)NC(=O)[C@H](CO)NC(=O)[C@H](CO)NC(=O)[C@@H](NC(=O)[C@H](CC(=O)O)NC(=O)[C@H](CO)NC(=O)[C@@H](NC(=O)[C@H](Cc1ccccc1)NC(=O)[C@@H](NC(=O)CNC(=O)[C@H](CCC(=O)O)NC(=O)C(C)(C)NC(=O)[C@@H](N)Cc1c[nH]cn1)[C@@H](C)O)[C@@H](C)O)C(C)C)C(C)C)C(=O)N[C@@H](C)C(=O)N[C@@H](Cc1c[nH]c2ccccc12)C(=O)N[C@@H](CC(C)C)C(=O)N[C@H](C(=O)N[C@@H](CCC(=O)O)C(=O)N[C@@H](CCCCN)C(=O)NC(C)(C)C(=O)N[C@@H](CCCCN)C(=O)N[C@@H](CCC(=O)O)C(=O)N[C@@H](Cc1ccccc1)C(=O)N[C@@H](CC(C)C)C(N)=O)C(C)C
B5: [Aib8,Glu23,Lys24,Val25,Glu34,Aib36,Lys37]-GLP-1-(7-37)-peptidyl-Glu-Phe-Leu amide (peptide)
peptide: H[Aib]EGTFTSDVSSYLEGEKVKEFIAWLVEG[Aib]KEFL-NH2
modifications: N-terminus assumed
SMILES: CC[C@H](C)[C@H](NC(=O)[C@H](Cc1ccccc1)NC(=O)[C@H](CCC(=O)O)NC(=O)[C@H](CCCCN)NC(=O)[C@@H](NC(=O)[C@H](CCCCN)NC(=O)[C@H](CCC(=O)O)NC(=O)CNC(=O)[C@H](CCC(=O)O)NC(=O)[C@H](CC(C)C)NC(=O)[C@H](Cc1ccc(O)cc1)NC(=O)[C@H](CO)NC(=O)[C@H](CO)NC(=O)[C@@H](NC(=O)[C@H](CC(=O)O)NC(=O)[C@H](CO)NC(=O)[C@@H](NC(=O)[C@H](Cc1ccccc1)NC(=O)[C@@H](NC(=O)CNC(=O)[C@H](CCC(=O)O)NC(=O)C(C)(C)NC(=O)[C@@H](N)Cc1c[nH]cn1)[C@@H](C)O)[C@@H](C)O)C(C)C)C(C)C)C(=O)N[C@@H](C)C(=O)N[C@@H](Cc1c[nH]c2ccccc12)C(=O)N[C@@H](CC(C)C)C(=O)N[C@H](C(=O)N[C@@H](CCC(=O)O)C(=O)NCC(=O)NC(C)(C)C(=O)N[C@@H](CCCCN)C(=O)N[C@@H](CCC(=O)O)C(=O)N[C@@H](Cc1ccccc1)C(=O)N[C@@H](CC(C)C)C(N)=O)C(C)C
B6: [Aib8,Glu23,Arg24,Val25,Glu34,Lys35,Aib36,Lys37]-GLP-1-(7-37)-peptidyl-Glu-Phe-Leu amide (peptide)
peptide: H[Aib]EGTFTSDVSSYLEGERVKEFIAWLVEK[Aib]KEFL-NH2
modifications: N-terminus assumed
SMILES: CC[C@H](C)[C@H](NC(=O)[C@H](Cc1ccccc1)NC(=O)[C@H](CCC(=O)O)NC(=O)[C@H](CCCCN)NC(=O)[C@@H](NC(=O)[C@H](CCCNC(=N)N)NC(=O)[C@H](CCC(=O)O)NC(=O)CNC(=O)[C@H](CCC(=O)O)NC(=O)[C@H](CC(C)C)NC(=O)[C@H](Cc1ccc(O)cc1)NC(=O)[C@H](CO)NC(=O)[C@H](CO)NC(=O)[C@@H](NC(=O)[C@H](CC(=O)O)NC(=O)[C@H](CO)NC(=O)[C@@H](NC(=O)[C@H](Cc1ccccc1)NC(=O)[C@@H](NC(=O)CNC(=O)[C@H](CCC(=O)O)NC(=O)C(C)(C)NC(=O)[C@@H](N)Cc1c[nH]cn1)[C@@H](C)O)[C@@H](C)O)C(C)C)C(C)C)C(=O)N[C@@H](C)C(=O)N[C@@H](Cc1c[nH]c2ccccc12)C(=O)N[C@@H](CC(C)C)C(=O)N[C@H](C(=O)N[C@@H](CCC(=O)O)C(=O)N[C@@H](CCCCN)C(=O)NC(C)(C)C(=O)N[C@@H](CCCCN)C(=O)N[C@@H](CCC(=O)O)C(=O)N[C@@H](Cc1ccccc1)C(=O)N[C@@H](CC(C)C)C(N)=O)C(C)C
B7: [Aib8,Glu23,Val25,Val29,Gln30,Glu34,Lys35,Aib36,Lys37]-GLP-1-(7-37)-peptidyl-Glu-Phe-Leu amide (peptide)
peptide: H[Aib]EGTFTSDVSSYLEGEAVKEFVQWLVEK[Aib]KEFL-NH2
modifications: N-terminus assumed
SMILES: CC(C)C[C@H](NC(=O)[C@H](Cc1ccccc1)NC(=O)[C@H](CCC(=O)O)NC(=O)[C@H](CCCCN)NC(=O)C(C)(C)NC(=O)[C@H](CCCCN)NC(=O)[C@H](CCC(=O)O)NC(=O)[C@@H](NC(=O)[C@H](CC(C)C)NC(=O)[C@H](Cc1c[nH]c2ccccc12)NC(=O)[C@H](CCC(N)=O)NC(=O)[C@@H](NC(=O)[C@H](Cc1ccccc1)NC(=O)[C@H](CCC(=O)O)NC(=O)[C@H](CCCCN)NC(=O)[C@@H](NC(=O)[C@H](C)NC(=O)[C@H](CCC(=O)O)NC(=O)CNC(=O)[C@H](CCC(=O)O)NC(=O)[C@H](CC(C)C)NC(=O)[C@H](Cc1ccc(O)cc1)NC(=O)[C@H](CO)NC(=O)[C@H](CO)NC(=O)[C@@H](NC(=O)[C@H](CC(=O)O)NC(=O)[C@H](CO)NC(=O)[C@@H](NC(=O)[C@H](Cc1ccccc1)NC(=O)[C@@H](NC(=O)CNC(=O)[C@H](CCC(=O)O)NC(=O)C(C)(C)NC(=O)[C@@H](N)Cc1c[nH]cn1)[C@@H](C)O)[C@@H](C)O)C(C)C)C(C)C)C(C)C)C(C)C)C(N)=O

These binders were tested against human GLP-1 receptor (human, UniProt P43220) (assay: cell-based or functional assay).

Row | Binder | CRE luciferase EC50, 0% HSA | CRE luciferase EC50, 1% HSA
1 | HAEGTFTSDLSKQMEEEAVREFIEWLKNKVLEFL-NH2 [[Ala2,Glu21,Lys29,Val30,Leu31,Glu32,Phe33,Leu34]-Exendin-4-(1-34)-peptide amide] | 0.031 nM | 0.02 nM
2 | HAQGTFTSDYSKYLDSKAAREFVQWLLEKVKEFL-NH2 [[Ala2,Lys17,Ala18,Arg20,Glu21,Leu27,Glu28,Lys29]-Glucagonyl-(1-29)-Val-Lys-Glu-Phe-Leu amide] | 0.971 nM | 0.231 nM
3 | B1 | 0.396 nM | 0.193 nM
4 | B2 | 0.022 nM | 0.015 nM
5 | B3 | 0.014 nM | 0.005 nM
6 | B4 | 0.487 nM | 0.174 nM
7 | B5 | 0.461 nM | 0.111 nM
8 | B6 | 1.08 nM | 0.273 nM
9 | HAEGTFTSDVSSYLEGEAVKEFIAWLVEKVKEFL-NH2 [[Glu23,Val25,Glu34,Lys35,Val36,Lys37]-GLP-1-(7-37)-peptidyl-Glu-Phe-Leu amide] | 0.44 nM | 0.171 nM
10 | B7 | 0.126 nM | 0.037 nM
